# Measurements as given in patent US20100081621.
# Biological target: APOBEC3G D316R/D317R D316R,D317R (Homo sapiens) (UniProt Q9HC16)
# Conditions: deamination; middle and 3' C deaminated at about same rate
# Chain of APOBEC3G D316R/D317R D316R,D317R (Homo sapiens) (Q9HC16 whole entry D316R/D317R): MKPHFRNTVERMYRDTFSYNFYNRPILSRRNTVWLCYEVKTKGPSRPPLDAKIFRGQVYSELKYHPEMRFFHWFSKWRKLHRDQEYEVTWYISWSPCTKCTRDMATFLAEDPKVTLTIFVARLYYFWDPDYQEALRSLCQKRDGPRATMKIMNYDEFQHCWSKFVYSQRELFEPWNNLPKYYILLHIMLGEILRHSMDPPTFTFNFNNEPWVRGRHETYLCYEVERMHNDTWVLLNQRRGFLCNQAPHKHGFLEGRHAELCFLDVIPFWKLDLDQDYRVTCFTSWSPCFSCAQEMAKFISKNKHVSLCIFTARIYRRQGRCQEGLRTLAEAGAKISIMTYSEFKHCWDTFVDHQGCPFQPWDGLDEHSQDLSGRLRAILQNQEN
substance,measurement,value
FdT ssDNA deamination substrate with CCC motif,activity,1.6 fold of wt
